Data published in the Immune Epitope Database (IEDB).

Assays:
HLA-A*02:16 = assay: IEDB peptide-MHC binding, purified MHC/competitive/fluorescence; filed as Kd, often an IC50 or EC50 that approximates it; ≥ and ≤ were set here for values at or beyond the usual limits of such assays
HLA-B*39:01 = assay: as above
HLA-A*02:11 = assay: as above
HLA-B*51:01 = assay: as above
HLA-A*23:01 = assay: as above
HLA-B*46:01 = assay: as above
HLA-A*02:12 = assay: as above
HLA-A*02:03 = assay: as above
HLA-B*18:01 = assay: as above
HLA-B*57:01 = assay: as above
HLA-A*26:01 [1] = assay: as above
HLA-A*03:01 [2] = assay: as above
HLA-B*27:03 = assay: as above
HLA-B*15:01 = assay: as above; details: source organism: Giardia lamblia ATCC 50803
HLA-A*24:03 = assay: as above
HLA-A*69:01 = assay: as above
HLA-A*29:02 = assay: as above
HLA-A*02:19 [3] = assay: as above
HLA-A*02:01 = assay: as above
HLA-A*68:02 [4] = assay: as above
HLA-B*15:17 = assay: as above; details: source organism: Giardia lamblia ATCC 50803
HLA-B*35:01 = assay: as above
HLA-A*01:01 = assay: IEDB peptide-MHC binding, purified MHC/direct/fluorescence; filed as Kd, often an IC50 or EC50 that approximates it; ≥ and ≤ were set here for values at or beyond the usual limits of such assays; details: source organism: Mycobacterium tuberculosis variant bovis BCG str. Pasteur 1173P2
HLA-A*26:01 [5] = assay: as above; details: source organism: Mycobacterium tuberculosis variant bovis BCG str. Pasteur 1173P2
HLA-B*27:05 = assay: IEDB peptide-MHC binding, purified MHC/competitive/fluorescence; filed as Kd, often an IC50 or EC50 that approximates it; ≥ and ≤ were set here for values at or beyond the usual limits of such assays
HLA-C*03:03 = assay: IEDB peptide-MHC binding, purified MHC/direct/fluorescence; filed as Kd, often an IC50 or EC50 that approximates it; ≥ and ≤ were set here for values at or beyond the usual limits of such assays; details: source organism: Bacillus anthracis str. A0488
HLA-B*58:01 = assay: IEDB peptide-MHC binding, purified MHC/competitive/fluorescence; filed as Kd, often an IC50 or EC50 that approximates it; ≥ and ≤ were set here for values at or beyond the usual limits of such assays
HLA-B*40:01 = assay: IEDB peptide-MHC binding, purified MHC/direct/fluorescence; filed as Kd, often an IC50 or EC50 that approximates it; ≥ and ≤ were set here for values at or beyond the usual limits of such assays; details: source organism: Ebola virus - Gabon (1994-1997)
HLA-A*03:01 [6] = assay: as above; details: source organism: Zaire ebolavirus
HLA-A*02:19 [7] = assay: as above; details: source organism: Zaire ebolavirus
HLA-A*68:02 [8] = assay: as above; details: source organism: Zaire ebolavirus
[9] = source organism: Giardia lamblia ATCC 50803
[10] = source organism: Bacillus anthracis str. A2012
[11] = source organism: Zaire ebolavirus
[12] = source organism: Salmonella enterica subsp. enterica serovar Typhi str. CT18

Work on DEYGPVFVE yielded a Kd (HLA-A*02:16; [9]) of at least 20 µM, a Kd (HLA-B*39:01; [9]) of at least 20 µM and a Kd (HLA-A*02:11; [9]) of at least 20 µM. The Kd (HLA-B*51:01; [9]) was at least 20 µM, the Kd (HLA-A*23:01; [9]) was at least 20 µM and the Kd (HLA-B*46:01; [9]) was at least 20 µM. The Kd (HLA-A*02:12; [9]) was at least 20 µM, the Kd (HLA-A*02:03; [9]) was at least 20 µM and the Kd (HLA-B*18:01; [9]) was 0.0861 µM. The Kd (HLA-B*57:01; [9]) was at least 20 µM, the Kd (HLA-A*26:01 [1]; [9]) was at least 20 µM and the Kd (HLA-A*03:01 [2]; [9]) was at least 20 µM. The Kd (HLA-B*27:03; [9]) was at least 20 µM, the Kd (HLA-B*15:01) was at least 20 µM and the Kd (HLA-A*24:03; [9]) was at least 20 µM. For the same sequence, the Kd (HLA-A*69:01; [9]) was at least 20 µM, the Kd (HLA-A*29:02; [9]) was at least 20 µM and the Kd (HLA-A*02:19 [3]; [9]) was at least 20 µM. The Kd (HLA-A*02:01; [9]) was at least 20 µM, the Kd (HLA-A*68:02 [4]; [9]) was at least 20 µM and the Kd (HLA-B*15:17) was at least 20 µM.
For FVAAGAFHM, the Kd (HLA-A*26:01 [1]; [10]) was 0.278 µM and the Kd (HLA-B*35:01; [10]) was 0.0037 µM.
Work on FVARIDLGY yielded a Kd (HLA-A*01:01) of 0.603 µM, a Kd (HLA-A*26:01 [5]) of 0.0199 µM and a Kd (HLA-B*35:01; source organism: Mycobacterium tuberculosis C) of 0.0142 µM.
With GRITVSTKR the Kd (HLA-B*27:05; source organism: Influenza A virus (A/CHU/2-524/2005(H3N2))) was 0.315 µM.
Sequence ITLPISASL has a Kd (HLA-C*03:03) of at most 0.001 µM and a Kd (HLA-B*58:01; source organism: Bacillus anthracis str. A0488) of 0.114 µM.
KQIPIWLPL was tested, and the Kd (HLA-B*40:01) was 0.0009 µM, the Kd (HLA-A*03:01 [6]) was at least 20 µM and the Kd (HLA-A*02:19 [7]) was at least 20 µM. For the same sequence, the Kd (HLA-A*68:02 [8]) was at least 20 µM, the Kd (HLA-B*51:01; [11]) was at least 20 µM and the Kd (HLA-B*27:05; [11]) was 0.316 µM. It also gave a Kd (HLA-B*57:01; [11]) of at least 20 µM, a Kd (HLA-A*26:01 [1]; [11]) of at least 20 µM and a Kd (HLA-A*69:01; [11]) of at least 20 µM.
For KSKPRIHGY, the Kd (HLA-A*02:16; [12]) was at least 20 µM, the Kd (HLA-B*39:01; [12]) was at least 20 µM and the Kd (HLA-A*02:11; [12]) was at least 20 µM. It also gave a Kd (HLA-B*51:01; [12]) of at least 20 µM, a Kd (HLA-A*23:01; [12]) of at least 20 µM and a Kd (HLA-B*46:01; [12]) of at least 20 µM. It also gave a Kd (HLA-A*02:12; [12]) of at least 20 µM, a Kd (HLA-A*02:03; [12]) of at least 20 µM and a Kd (HLA-B*18:01; [12]) of at least 20 µM. The Kd (HLA-B*57:01; [12]) was 0.169 µM, the Kd (HLA-A*26:01 [1]; [12]) was at least 20 µM and the Kd (HLA-A*03:01 [2]; [12]) was at least 20 µM. The Kd (HLA-B*27:03; [12]) was at least 20 µM, the Kd (HLA-A*24:03; [12]) was at least 20 µM and the Kd (HLA-A*69:01; [12]) was at least 20 µM. The Kd (HLA-A*29:02; [12]) was at least 20 µM, the Kd (HLA-A*02:19 [3]; [12]) was at least 20 µM and the Kd (HLA-A*02:01; [12]) was at least 20 µM. The Kd (HLA-A*68:02 [4]; [12]) was at least 20 µM.
Sequence KTNRTGLLM has a Kd (HLA-B*58:01; source organism: Bacillus cereus G9241) of 0.0913 µM.
